Tests used:
Assay type in all cases: cell-based, rat
[1] = system: adult hippocampus-derived neural precursor cells; assay: Proliferation (BrdU) and survival (TUNEL) assays in differentiating neural precursor cultures
Experimental: Proliferation and survival assays BrdU was added to the culture media from hour 24 to hour 48 of the 60 hour paradigm. Immunocytochemistry and confocal microscopy was then used to determine the fraction of GFP+ cells that labeled with BrdU, TUNEL, or type III β-tubulin or doublecortin. TUNEL staining was performed with Apoptag Red (Serologicals, Norcross, Ga.). The fraction of total (DAPI+) nuclei that were TUNEL+ were determined, as well as the fraction of doublecortin positive cells that were also TUNEL+.

Hes1 mRNA = assay: Real-time quantitative RT-PCR of Hes1 in neural precursors; details: 60 hours exposure
Text: Signaling via gp130, the co-receptor of the IL-6 receptor, stimulates the Notch1 pathway, resulting in an increase in expression of the mammalian homolog of hairy-enhancer-of-split, Hes 1, transcription factor and antagonism of pro-neural basic helix-loop-helix (bHLH) genes and hippocampal neurogenesis during development. To determine if IL-6 treatment of adult stem cells leads to an increase in Hes 1 consistent with the reduction in neuronal cell fate, “real-time” quantitative RT-PCR was performed on total RNA extracted from neural precursors exposed for 60 hours to activated microglial CM or IL-6. Both CM and IL-6 caused a dramatic increase in Hes1 mRNA expression (3.2- and 7.7-fold increase respectively, relative to control).
Total RNA isolation, cDNA synthesis, and SYBR Green real-time quantitative RT-PCR. […] Quantitative SYBR Green real time PCR was carried out as described previously. […] Quantitative RT-PCR was performed on ABI 5700 PCR instrument (PerkinElmer Life Sciences) by using 3-stage program parameters provided by the manufacturer as follows; 2 min at 50° C., 10 min at 95° C., and then 40 cycles of 15 s at 95° C. and 1 min at 60° C. […] Each sample was tested in five copies with quantitative PCR, and samples obtained from three independent experiments were used to calculate the means and standard deviations. […]

[2] = system: adult hippocampus-derived neural precursor cells; assay: In vitro neuronal differentiation (doublecortin) of hippocampal neural progenitor cells, 60 hours; details: 60 hours
Text: Neuroinflammation could inhibit neurogenesis by a variety of mechanisms, including stimulation of the HPA axis with subsequent elevation of gluccocorticoids, alterations in the relationships between progenitor cells and cells of the neuro-vasculature, or direct effects of activated microglia on the precursor cells. To determine the extent to which microglial activation might directly affect neural stem/progenitor cells, microglia were stimulated in vitro with LPS. LPS is a potent activator of microglia and up-regulates the elaboration of pro-inflammatory cytokines, including IL-6 and TNF-α. LPS-stimulated or resting microglia were then co-cultured with normal neural stem cells from the hippocampus under conditions that typically stimulate the differentiation of 30 to 40% of the progenitor cells into immature Dcx-expressing neurons (normalized to a value of 1 in FIG. 2A, control). Neurogenesis in the presence of microglia was assessed as the increase or decrease in Dcx-expressing cells relative to control. Co-culture with activated, but not resting, microglia decreased in vitro neurogenesis to approximately half of control levels (FIG. 2A). LPS added directly to precursor cells had no effect on neurogenesis.
To determine if this effect was due to soluble factors or due to cell-cell contact, hippocampal precursor cells were differentiated in the presence of media pre-conditioned by resting or activated microglia.
Activated microglia produce the potent pro-inflammatory cytokines interleukin-1β (IL-1β), tumor necrosis factor-α (TNF-α), interferon-γ (INF-γ) and interleukin-6 (IL-6). Progenitor cells were allowed to differentiate in the presence of each cytokine and the relative expression of Dcx was scored after 60 hours. […] Addition of neutralizing anti-IL-6 antibody to CM from activated microglia was able to fully restore in vitro neurogenesis (FIG. 2A). This implicated IL-6 as a key inhibitor of neurogenesis in microglial CM. […] In contrast to neurogenesis, gliogenesis was unaffected by IL-6 exposure as indicated by the lack of change in the number of cells expressing the astrocyte (glial fibrillary acidic protein, GFAP) or early oligodendrocyte (NG2) markers relative to control cultures (FIG. 2E). The hippocampal precursors used in this study do express the IL-6 receptor, as confirmed by RT-PCR (FIG. 5).
Progenitor Cell Culture Adult hippocampus-derived neural precursor cells were isolated from adult rat hippocampus and cultured as previously described. Briefly, adult female Fisher-344 rats were deeply anesthetized with sodium pentobarbital and were dissected immediately. Hippocampi were enzymatically dissociated with papain (2.5 U/ml; Worthington, Freehold, N.J.)-dispase II (1 U/ml; Boehringer Mannheim, Indianapolis, Ind.)-DNase I (250 U/ml, Worthington) solution. Digested tissue was then washed with DMEM-10% fetal calf serum (FCS) and subsequently mixed with PBS-equilibrated Percoll solution to a final concentration of 35% Percoll. The Percoll solution was made by mixing nine parts of Percoll (Amersham Pharmacia Biotech, Uppsala, Sweden) with one part of 10× PBS. The cell suspension was then fractionated by centrifugation for 10 min at 1000×gravity. Floating myelin and tissue debris were discarded and the cell pellet re-suspended in 65% Percoll solution and fractionated again by centrifugation for 10 min at 1000×g. The floating neural precursors were collected, washed free of Percoll, and plated onto poly-L-ornithine/laminin-coated dishes in DMEM/F12 (1:1) containing 10% FCS medium for 24 hrs; then medium was replaced with serum-free growth medium consisting of DMEM/F12 (1:1) supplemented with N2 supplement (Life Technologies, Gaithersburg, Md.) and 20 ng/ml of human recombinant FGF-2 (Peprotech, Rocky Hill, N.J.). Cell lines were labeled via infection with replication deficient GFP-expressing recombinant retrovirus LZRS-CAMut4GFP. […]

B1: IL-6: recombinant rat interleukin-6 (protein)
chain: FPTSQVRRGDFTEDTTPNRPVYTTSQVGGLITHVLWEIVEMRKELCNGNSDCMNNDDALAENNLKLPEIQRNDGCYQTGYNQEICLLKISSGLLEYHSYLEYMKNNLKDNKKDKARVLQRDTETLIHIFNQEVKDLHKIVLPTPISNALLTDKLESQKEWLRTKTIQFILKSLEEFLKVTLRSTRQT
[1]; mean+/-s.e.m., differentiating culture, IL-6 50 ng/ml
  fraction of TUNEL-positive apoptotic cells: 0.068+/−0.005
[1]; mean+/-sem
  fraction of TUNEL-positive cells that co-labeled with doublecortin: 0.83+/−0.02
[1]; stem cell cultures
  mitotic index (fraction of cells labeled with BrdU in 24 hours): 95+/−1.7%
[1]; subset of spontaneously forming immature neurons
  BrdU labeling within the neuronal progeny: 82+/−1.6%
Hes1 mRNA
  increase in Hes1 mRNA expression relative to control: 7.7 fold
[2]; IL-6 50 ng/ml
  gliogenesis (cells expressing GFAP or NG2 relative to control): unaffected
[2]; recombinant IL-6 50 ng/ml or TNF-α 20 ng/ml
  decrease of in vitro neurogenesis (relative expression of Dcx): approximately 50%
